In paper doi:10.1101/2020.02.11.943597 one finds median rupture force data, which are given here for one molecule.

Assay [1] concerns the target T1, N-cadherin (human (endogenous in primary fibroblasts)), P19022.
T1 chain: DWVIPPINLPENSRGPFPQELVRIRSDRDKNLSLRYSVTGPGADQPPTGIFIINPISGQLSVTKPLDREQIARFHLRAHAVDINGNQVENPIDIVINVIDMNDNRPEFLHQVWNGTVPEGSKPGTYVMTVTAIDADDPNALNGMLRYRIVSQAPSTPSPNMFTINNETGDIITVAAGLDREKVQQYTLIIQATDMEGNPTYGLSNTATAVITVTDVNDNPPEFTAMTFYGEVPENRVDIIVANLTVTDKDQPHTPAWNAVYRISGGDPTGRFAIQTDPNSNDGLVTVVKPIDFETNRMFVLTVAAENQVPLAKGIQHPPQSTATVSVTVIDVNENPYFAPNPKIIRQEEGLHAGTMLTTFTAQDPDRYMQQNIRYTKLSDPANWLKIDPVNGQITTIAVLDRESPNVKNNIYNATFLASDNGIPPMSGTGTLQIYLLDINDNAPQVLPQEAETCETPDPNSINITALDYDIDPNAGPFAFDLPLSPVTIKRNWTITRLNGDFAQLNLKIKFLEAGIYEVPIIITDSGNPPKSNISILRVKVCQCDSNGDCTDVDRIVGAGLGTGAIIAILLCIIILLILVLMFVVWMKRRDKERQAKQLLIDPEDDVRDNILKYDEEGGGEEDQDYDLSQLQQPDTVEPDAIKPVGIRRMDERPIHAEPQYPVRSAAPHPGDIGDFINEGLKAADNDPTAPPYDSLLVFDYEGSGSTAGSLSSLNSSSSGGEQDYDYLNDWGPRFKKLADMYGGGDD
Kind of assay: AFM single-cell force spectroscopy. As to conditions: remark: other sources report otherwise.

The target of assay [2] is T1, N-cadherin (human (endogenous in …)). Kind of assay: AFM single-cell force spectroscopy. As to conditions: remark: other sources report otherwise.

B1: N-cadherin, P19022 160-906 (natural protein)
chain: T1 chain
With B1, the median rupture force in assay [1] turned out to be 51.9 pN; in assay [2], 45.2 pN.
